Test results as given in patent US20080274959A1, “Actinomadura Chromoprotein, Apoprotein and Gene Cluster” (Wyeth, priority 2004, published 2008).

Columns and labels:
SW620 = assay: Potency against human tumor cell lines: SW620; assay type: cell-based; conditions: SW620, Colon
bovine serum albumin = bovine serum albumin (Bos taurus, UniProt P02769); assay: Specificity of digestion: bovine serum albumin; assay type: biochemical; conditions: neutral/acidic protein
HT29 = assay: Potency against human tumor cell lines: HT29; assay type: cell-based; conditions: HT29, Colon
MCF-7 = assay: Potency against human tumor cell lines: MCF-7; assay type: cell-based; conditions: MCF-7, Breast
[1] = system: LoVo, HCT116, HT29, LOX, HN5 and PC-3 tumors; assay: In vivo anti-tumor activity, subcutaneous human tumor xenografts; set-up: species or system athymic (nude) mice; conditions: intravenous in saline, further doses on days 5 and 9; all six xenograft models
Protocol: The human tumor cell lines or fragments LoVo (colon cancer); HCT116 (colon); HT29 (colon); LOX (melanoma); HN5 (head & neck); and PC-3 (prostate) were implanted under the skin of athymic (nude) mice and allowed to form a tumor mass. When the tumors reached a size of 90-200 mg, the saline control vehicle or various concentrations of the Actinomadura sp. 21G792 chromoprotein formulated in saline was administered intravenously to the mice. The mice received subsequent doses on days 5 and 9 and the relative tumor growth was observed. The results are shown in the graphs in FIG. 24 and FIG. 25. Inhibition of tumor growth of up to 80% for mice receiving the chromoprotein was observed.

LOX = assay: Potency against human tumor cell lines: LOX; assay type: cell-based; conditions: Melanoma
histone H1 in HeLa cells = assay: Digestion of histone H1 in HeLa cells, immunoblot; assay type: cell-based; conditions: overnight at 37° C., anti-histone H1 immunoblot
Protocol: To study whether the digestion of histones by the chromoprotein occurs in intact cells, HeLa cells were incubated with compounds overnight at 37° C. Cell lysates were analysed by SDS-PAGE and protein immunoblotting using anti-histone H1 antibodies (Santa Cruz Biotechnologies). […] This activity can contribute to antitumor effects by digesting histones in chromatin, making the DNA more accessible for cleavage. This appears to be a unique activity of the chromoprotein enediynes.

BT474 = assay: Potency against human tumor cell lines: BT474; assay type: cell-based; conditions: BT474, Breast
LoVo = assay: Potency against human tumor cell lines: LoVo; assay type: cell-based; conditions: Colon
PC3 = assay: Potency against human tumor cell lines: PC3; assay type: cell-based; conditions: PC3, Prostate
myelin basic protein = assay: Specificity of digestion: myelin basic protein; assay type: biochemical
HCT116 cells = assay: Uptake of FITC-tagged protein, fluorescent microscopy / flow cytometry; assay type: cell-based, human; conditions: FITC-labeled
Description: To determine the mechanism by which the chromoprotein enters cells and exerts its biological activity, the chromoprotein was labeled with a fluorescent tag (FITC) using EZ-Label fluorescent labeling kit (Pierce Biotechnology), according to the manufacturer's recommendation. […] Uptake of labeled material by HCT116 colon carcinoma cells was studied by fluorescent microscopy.
To determine whether an intact complex of chromophore and apoprotein is required for cellular and nuclear entry, the chromoprotein and apoprotein were labeled with FITC. Uptake of labeled material was studied by fluorescent microscopy.
To determine whether the entry of chromoprotein into cells is mediated by a saturable (e.g. cell surface receptor-dependent) process, HCT116 cells were incubated with FITC-labeled chromoprotein (FIG. 28, right panel) or apoprotein (FIG. 28, left panel) in the absence or presence of 10-fold excess of unlabeled reagent (unlabelled chromoprotein or apoprotein, respectively). Cells were analysed by fluorescent microscopy (left) or flow cytometry (right). […] Numbers in the histograms are mean channel numbers (FITC fluorescence).
Other means by which a protein complex can enter cells is pinocytosis, where caveolae in the surface of the cell pinch off to form pinosomes that are free within the cytoplasm of the cell. Since pinocytosis is an energy-dependent process that requires a functional tubulin cytoskeletal network, we examined the effect of sodium azide, an energy uncoupling agent and nocodazole, an agent which disrupts the tubulin cytoskeleton on cellular uptake. HCT116 cells were treated with FITC-labeled apoprotein in the absence or presence of sodium azide or nocodazole.

Histone H1 = assay: Digestion of histone H1, SDS-PAGE; assay type: biochemical
Protocol: Histone H1 was incubated with various concentrations of the chromoprotein in 50 mM Tris-Cl, pH 7.5 overnight at 37° C. (FIG. 20) Digestions of histone were assessed by SDS-polyacrylamide gel electrophoresis (SDS-PAGE), followed by staining of the gel with GelCode Blue (Pierce Biotechnology, Inc, Rockford, Ill.).

HCT116 = assay: Potency against human tumor cell lines: HCT116; assay type: cell-based; conditions: HCT116, Colon
Protocol: The Actinomadura sp. 21G792 chromoprotein was added to an isogenic pair of cell lines (p21+/+ and p21−/−).

[2] = system: HCT116 p21+/+ and −/− cells; assay: COMET assay for DNA damage; assay type: cell-based, human; conditions: both p21-proficient and p21-deficient HCT116 cells
Description: A COMET assay obtained from Trevigen, Inc. was used to detect DNA damage. HCT116 p21+/+ and −/− cells were subjected to various amounts of the 21G792 chromoprotein and mitoxantrone.

Toxicity in nude mice = assay type: in vivo; conditions: for Bone Marrow Necrosis, average lesion severity: 0 = WNL, 1 = slight, 2 = mild, 3 = moderate, 4 = marked, 5 = severe
Protocol: 21G792 chromoprotein is well-tolerated in nude mice. Specifically, saline control vehicle or the chromoprotein in various doses was administered intravenously to six nude mice on days 1, 5, and 9.

DLD1 = assay: Potency against human tumor cell lines: DLD1; assay type: cell-based; conditions: DLD1, Colon
Human PGP (MDR1) = biological target: T1, Human PGP (MDR1) (Homo sapiens, UniProt P08183); assay: Transport by P-GP (MDR-1); assay type: cell-based; conditions: judged from IC50 in KB, KB-8-5, KB-V-1 cells
T1 construct: endogenous in cells; parental KB is P-GP negative
T1 sequence (P08183 whole entry): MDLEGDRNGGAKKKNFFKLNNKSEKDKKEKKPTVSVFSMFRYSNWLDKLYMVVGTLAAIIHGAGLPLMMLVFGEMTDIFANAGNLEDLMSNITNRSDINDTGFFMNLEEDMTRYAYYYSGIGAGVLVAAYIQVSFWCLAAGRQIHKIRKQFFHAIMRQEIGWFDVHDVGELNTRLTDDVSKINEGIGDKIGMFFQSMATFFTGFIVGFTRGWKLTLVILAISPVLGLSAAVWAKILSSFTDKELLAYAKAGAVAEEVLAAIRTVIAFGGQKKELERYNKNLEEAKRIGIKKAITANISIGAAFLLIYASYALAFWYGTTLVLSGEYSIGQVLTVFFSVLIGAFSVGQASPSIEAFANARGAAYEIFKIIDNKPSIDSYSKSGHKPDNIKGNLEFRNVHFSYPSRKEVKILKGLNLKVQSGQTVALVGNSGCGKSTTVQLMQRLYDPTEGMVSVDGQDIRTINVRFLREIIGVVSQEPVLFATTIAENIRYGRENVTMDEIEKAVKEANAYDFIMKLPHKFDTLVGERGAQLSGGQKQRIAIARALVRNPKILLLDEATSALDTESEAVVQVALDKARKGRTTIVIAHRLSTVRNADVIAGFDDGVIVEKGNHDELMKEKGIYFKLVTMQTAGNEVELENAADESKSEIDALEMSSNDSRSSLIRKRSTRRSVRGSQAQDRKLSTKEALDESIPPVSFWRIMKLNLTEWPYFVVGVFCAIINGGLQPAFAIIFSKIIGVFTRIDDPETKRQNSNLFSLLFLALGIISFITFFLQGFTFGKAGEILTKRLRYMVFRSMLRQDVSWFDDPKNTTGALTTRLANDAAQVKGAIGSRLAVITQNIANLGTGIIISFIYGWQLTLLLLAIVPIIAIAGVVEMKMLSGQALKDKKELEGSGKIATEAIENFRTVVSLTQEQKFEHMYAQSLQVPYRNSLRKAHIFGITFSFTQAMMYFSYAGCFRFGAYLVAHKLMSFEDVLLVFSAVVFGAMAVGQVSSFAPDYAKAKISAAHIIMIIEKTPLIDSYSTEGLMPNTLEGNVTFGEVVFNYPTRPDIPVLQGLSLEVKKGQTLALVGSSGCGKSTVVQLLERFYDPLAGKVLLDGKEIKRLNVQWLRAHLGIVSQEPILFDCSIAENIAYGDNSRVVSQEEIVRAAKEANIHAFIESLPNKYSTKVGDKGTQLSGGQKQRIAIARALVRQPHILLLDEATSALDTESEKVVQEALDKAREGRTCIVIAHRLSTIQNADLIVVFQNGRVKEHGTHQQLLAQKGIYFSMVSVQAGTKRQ
Description: Human PGP (MDR1) is an ATP-dependent efflux pump which is capable of transporting many drugs across cell membranes. High level expression of this protein has been linked to multiple drug resistance of tumors. […] The protein component of the chromoprotein probably protects the chromophore from drug efflux mediated by MDR1, and may be responsible for the beneficial antitumor effects in colon cell lines which often express MDR1.

bovine serum albumin, sequence (P02769 25-607): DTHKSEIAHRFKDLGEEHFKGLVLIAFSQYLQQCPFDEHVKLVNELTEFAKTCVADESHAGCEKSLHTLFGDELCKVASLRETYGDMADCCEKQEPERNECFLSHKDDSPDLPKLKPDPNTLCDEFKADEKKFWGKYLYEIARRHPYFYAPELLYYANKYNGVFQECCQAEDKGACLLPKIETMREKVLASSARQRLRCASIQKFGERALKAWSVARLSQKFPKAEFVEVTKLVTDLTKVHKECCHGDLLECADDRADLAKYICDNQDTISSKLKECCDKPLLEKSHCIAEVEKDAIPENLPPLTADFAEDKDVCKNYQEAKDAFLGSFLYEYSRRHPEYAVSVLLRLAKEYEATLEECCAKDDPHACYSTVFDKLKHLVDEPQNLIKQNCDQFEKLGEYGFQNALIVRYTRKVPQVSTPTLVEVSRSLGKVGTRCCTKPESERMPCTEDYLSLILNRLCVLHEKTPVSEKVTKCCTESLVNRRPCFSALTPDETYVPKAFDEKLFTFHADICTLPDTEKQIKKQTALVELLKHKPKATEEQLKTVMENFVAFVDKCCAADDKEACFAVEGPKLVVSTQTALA

B1: Actinomadura sp. 21G792 chromoprotein: non-covalent complex of an apoprotein and a chromophore comprising a nine-membered enediyne, produced by Actinomadura sp. 21G792 (NRRL 30778) (protein)
chain: DTVTVNYDCVGYPSDIAVTIDAPATAGVGDTATFEVSSVVTTGAPQDLPAGEVVTDMAIVVGGAQSGTITASGLTNEATPAGQPVNMVGGEAQITFTSAGSVTFTPSTTTQVDNGAQCTVVGEAPVGATTVVS
- IC50 (SW620): 2 ng/mL
- cleavage of bovine serum albumin (bovine serum albumin): not neutral/acidic proteins such as bovine serum albumin
- IC50 (HT29): 8 ng/mL
- IC50 (MCF-7): 2 ng/mL
- Inhibition of tumor growth [1]: up to 80%
- IC50 (LOX): 1 ng/mL
- histone H1 in cells after incubation (histone H1 in HeLa cells): reduced histone H1 in cells
- IC50 (BT474): 47 ng/mL
- IC50 (LoVo): 2 ng/mL
- IC50 (PC3): 22000 ng/mL
- cleavage of myelin basic protein (myelin basic protein): cleaves
- biological activity after FITC labeling (HCT116 cells): No loss of biological activity
- uptake, apoprotein compared with chromoprotein (HCT116 cells): similar
- cellular localisation of label (HCT116 cells; incubation 3-6 hours, fluorescent microscopy): Most of the label appeared in the cytoplasm
- competition of uptake by 10-fold excess of unlabeled reagent (HCT116 cells; microscopy or flow cytometry): No competition of label
- digestion of histone H1 on addition of DNA (Histone H1): inhibited by addition of DNA
- digestion of histones on addition of free radical scavengers (Histone H1; 30 mM glutathione or N-acetyl cysteine): inhibited by the addition of free radical scavengers
- digestion of histone H1 (Histone H1; 50 mM Tris-Cl, pH 7.5 overnight at 37° C.): digestion of Histone H1
- digestion of histones on addition of protease inhibitors (Histone H1; PMSF, Leupeptin, Aprotinin, Pepstatin A): not by protease inhibitors
- IC50 (HCT116): 1000 ng/mL
- concentration at which dose-dependent DNA strand breaks occur [2]: > 100 ng/mL
- Lymphocytes (Toxicity in nude mice; 3 mg/kg): 290 cells/μl
- WBC (Toxicity in nude mice; 3 mg/kg): 1430 cells/μl
- Bone Marrow Necrosis, number with lesion/total number examined (Toxicity in nude mice; 3 mg/kg i.v. days 1, 5, 9): 6/6
- Bone Marrow Necrosis, average lesion severity (Toxicity in nude mice; 3 mg/kg): 1.7
- Lymphocytes (Toxicity in nude mice; 6 mg/kg): 40 cells/μl
- WBC (Toxicity in nude mice; 6 mg/kg): 1280 cells/μl
- Bone Marrow Necrosis, number with lesion/total number examined (Toxicity in nude mice; 6 mg/kg i.v. days 1, 5, 9): 6/6
- Bone Marrow Necrosis, average lesion severity (Toxicity in nude mice; 6 mg/kg): 3
- tolerability (Toxicity in nude mice; intravenous on days 1, 5 and 9): well-tolerated
- adverse effects in the intestine, nerves, spinal cord, liver, or at the site of injection (Toxicity in nude mice; mouse, in vivo): No adverse effects
- IC50 (DLD1): 8000 ng/mL
- MDR1 substrate (Human PGP (MDR1)): poor MDR1 substrate
